Experimental data from IntAct's records for PubMed 20927106.

B1: Coronatine-insensitive protein 1 (Arabidopsis thaliana (Mouse-ear cress)), O04197 (parent)
chain: MEDPDIKRCKLSCVATVDDVIEQVMTYITDPKDRDSASLVCRRWFKIDSETREHVTMALCYTATPDRLSRRFPNLRSLKLKGKPRAAMFNLIPENWGGYVTPWVTEISNNLRQLKSVHFRRMIVSDLDLDRLAKARADDLETLKLDKCSGFTTDGLLSIVTHCRKIKTLLMEESSFSEKDGKWLHELAQHNTSLEVLNFYMTEFAKISPKDLETIARNCRSLVSVKVGDFEILELVGFFKAAANLEEFCGGSLNEDIGMPEKYMNLVFPRKLCRLGLSYMGPNEMPILFPFAAQIRKLDLLYALLETEDHCTLIQKCPNLEVLETRNVIGDRGLEVLAQYCKQLKRLRIERGADEQGMEDEEGLVSQRGLIALAQGCQELEYMAVYVSDITNESLESIGTYLKNLCDFRLVLLDREERITDLPLDNGVRSLLIGCKKLRRFAFYLRQGGLTDLGLSYIGQYSPNVRWMLLGYVGESDEGLMEFSRGCPNLQKLEMRGCCFSERAIAAAVTKLPSLRYLWVQGYRASMTGQDLMQMARPYWNIELIPSRRVPEVNQQGEIREMEHPAHILAYYSLAGQRTDCPTTVRVLKEPI
partner: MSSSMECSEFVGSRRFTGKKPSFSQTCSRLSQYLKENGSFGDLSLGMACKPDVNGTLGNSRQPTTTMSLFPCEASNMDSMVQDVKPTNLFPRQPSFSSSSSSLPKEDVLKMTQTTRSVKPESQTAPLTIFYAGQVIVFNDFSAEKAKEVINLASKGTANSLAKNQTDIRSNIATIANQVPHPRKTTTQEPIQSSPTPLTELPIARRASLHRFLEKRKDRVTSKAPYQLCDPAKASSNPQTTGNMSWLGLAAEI

Variants of: B1
Settings: with ti10a_arath TIFY10A

effect of a mutation on the interaction	Variant
disrupting interaction	L469A
disrupting interaction	Y386A
disrupting interaction	R496A
disrupting interaction	Y444A
disrupting interaction	R351A
disrupting interaction	R409A

Continued, variant first:

Variant	effect of a mutation on the interaction
F89A	disrupting interaction
L301A	disrupting interaction
R326A	disrupting interaction
Y302A	disrupting interaction
R348A	disrupting interaction
R85A	disrupting interaction
R121A	disrupting interaction
M88A	disrupting interaction
